Reference: patent US20140275487A1

Target: T4L-β2AR (N-terminally fused T4 lysozyme-β2AR construct truncated in position 365), BI-167107 bound (human)
Experiment: crystal structure

buried surface for GαsRas: 1300 A^2
buried surface for the β2AR: 1280 A^2
total buried surface of the β2AR-GαsRas interface: 2580 A^2
Substance: Gαs subunit of the heterotrimeric Gs protein (from UniProt P04896 2-394)
